According to patent publication US20130066046A1:
One block for each molecule: values may come before it.

Assays:
[1] = molecular target: human serum albumin (human) (UniProt P02768); assay: competitive ELISA: soluble binding protein competes with plate-immobilised single maximum moiety for biotinylated human serum albumin, streptavidin-peroxidase readout
[2] = molecular target: human serum albumin (human) (UniProt P02768); assay: SPR (Biacore), HSA immobilised on CM5 chip, 40 nM, mean+/-SD, N=4
[3] = molecular target: human serum albumin (human) (UniProt P02768); assay: annotation in the curve's label on the competitive ELISA plot; the sheet does not say how this Kd was obtained (text paragraph 46 speaks of a reported Kd ~1x10^-9 M)
[4] = molecular target: IgG (biotinylated); assay: competitive ELISA, slope around the 50% inhibition point (Illustration 2.1)
[5] = molecular target: IgG (biotinylated); assay: competitive ELISA, soluble protein against immobilised two-moiety cassette for biotinylated IgG (Illustration 2.1)
[6] = molecular target: human IgG (from human serum; human immunoglobin G standard); assay: extraction from diluted human serum with coated silica beads, gel/blot comparison with standards (Illustration 2.2)
[7] = molecular target: IgG (biotinylated); assay: competitive ELISA, ratio against one maximum domain (Illustration 2.1)
[8] = molecular target: human serum albumin (human) (UniProt P02768); assay: SPR (Biacore), HSA immobilised on CM5 chip, limited number of replicates
[9] = molecular target: human serum albumin (human) (UniProt P02768); assay: competitive ELISA, ratio against construct 1 (Illustration 1.2)
[10] = molecular target: human serum albumin (human) (UniProt P02768); assay: flow cytometry, binding protein immobilised on beads, fluorescein labeled albumin (Illustration 1.5)
[11] = molecular target: human serum albumin (human) (UniProt P02768); assay: flow cytometry on beads, ratio against the single maximum moiety (Illustration 1.5)
[12] = molecular target: human serum albumin (human) (UniProt P02768); assay: competitive ELISA, slope around the 50% inhibition point (Illustration 1.2)
[13] = molecular target: human serum albumin (human) (UniProt P02768); assay: SPR (Biacore), HSA immobilised on CM5 chip
[14] = molecular target: human serum albumin (human) (UniProt P02768); assay: competitive ELISA, soluble construct against immobilised binding protein for biotinylated HSA (Illustration 1.2)

IC50 (read off the curve) (pmoles per well) [1]: 10 | Kd [2]: 0.7 nM | kon [2]: 123000 M⁻¹ s⁻¹ | Kd [3]: 10 nM
Molecule: native material analogous to that of Sjöbring et al. (1991), streptococcal protein G

rate of change [4]: 50 | IC50 [5]: 1 nM | percent of IgG extracted [6]: > 99% | R (ratio of 50% inhibition point, two maximum moieties / one maximum moiety) [7]: 0.6 | S (ratio of rate of change, two maximum moieties / one maximum moiety) [7]: 1.6
B1: functional cassette with two maximum moieties (six minimum moieties) for IgG (designed binder)
chain: LGIDPFTALPKTDTYKLILNGKTLKGETTTEAVDAATAEKVFKQYANDNGVDGEWTYDDATKTFTVTEKPEVIDASELTPAVTTYKLVINGKTLKGETTTEAVDAATAEKVFKQYANDNGVDGEWTYDDATKTFTVTEKPEVIDASELTPAVTTYKLVINGKTLKGETTTKAVDAETAEKAFKQYANDNGVDGVWTYDDATKTFTVTEMVTESRALPKTDTYKLILNGKTLKGETTTEAVDAATAEKVFKQYANDNGVDGEWTYDDATKTFTVTEKPEVIDASELTPAVTTYKLVINGKTLKGETTTEAVDAATAEKVFKQYANDNGVDGEWTYDDATKTFTVTEKPEVIDASELTPAVTTYKLVINGKTLKGETTTKAVDAETAEKAFKQYANDNGVDGVWTYDDATKTFTVTEMVTEKGELKLCITGDALVALPEGES

Kd [8]: < 0.01 nM | koff [8]: < 1e-05 s⁻¹ | kon [8]: 300000 M⁻¹ s⁻¹ | R (ratio of 50% inhibition point, two maximum moieties / one maximum moiety) [9]: 0.4 | S (ratio of rate of change, two maximum moieties / one maximum moiety) [9]: 1.7 | Kd [10]: 160 nM | F (ratio of apparent Kd, two maximum moieties / one maximum moiety) [11]: 0.67 | rate of change [12]: 8.5 | half-life [13]: 7410 days | IC50 [14]: 15 nM
B2: Construct "2" (functional cassette with two maximum moieties for human serum albumin) (designed binder, part only; not given: spacer and terminal segment, not shown: small tags and cut ends)
chain, part: AAALDQAKQAALKEFDRYGVSNYYKNLINKAKTVEGIMELQAQVVESAKKARISEATDGLSDFLKSQTSAEDTLKSIKLSEAKEMAIRELDAQGVSDFYKNKINNAKTVEGVVALKDLILNSLAAALDQAKQAALKEFDRYGVSNYYKNLINKAKTVEGIMELQAQVVESAKKARISEATDGLSDFLKSQTSAEDTLKSIKLSEAKEMAIRELDAQGVSDFYKNKINNAKTVEGVVALKDLILNSL
